The experiment deals with activated C1s. In words: Cross reaction test of fluorescence detection method for activated C1s. Format: biochemical. The note with it: for Measured concentration: interferent in PBS: double-stranded C1r 660 μg/mL, MASP1 and MASP2 5000 μg/mL; for Cross reaction rate (%): measured value/theoretical value×100%. As for the experimental part:
• 1. Preparation of a buffer: 1) Binding Buffer: 0.1 M morpholinoethanesulfonic acid (MES, pH=5.0); • 2) Washing Buffer: TBS containing 0.05% Tween 20; • 3) Blocking Buffer: containing 0.05 M Tris, 1.0% BSA, and 0.05% Tween 20; • 4) Desired Buffer: Tris buffer containing 0.05% Tween 20 and BSA; and • 5) Tris Buffer: 0.05 M Tris, 0.15 M NaCl, and 0.2% (w/v) polyethylene glycol 8000. • 2. Preparation of immunomagnetic beads (C1s recombinant antibody-coupled magnetic beads) • (1) 10 mg of magnetic beads (Merck carboxyl magnetic beads, with a particle size of 1 μm) were washed 3 times with 1 mL of Binding Buffer, and vortexed to mix evenly. • (2) 20 μg of the C1s recombinant antibody obtained in Example 1 was added into every 1 mg of the magnetic beads, mixed well, and vortexed at a room temperature (25° C.) for 15 min. • (3) 50 μg of a coupling agent was added into every 1 mg of the magnetic beads, mixed well, and vortexed at a room temperature for 1 h. • (4) 1 mL of Binding Buffer was added and vortexed at a room temperature for 3 h. • (5) The magnetic beads were washed 4 times with 0.5 mL of Washing Buffer. • (6) The magnetic beads were resuspended with 1 mL of Desired Buffer to obtain C1s recombinant antibody-coupled magnetic beads with a concentration of 5 mg/mL, and stored at 4° C. until later use. • 3. Detection of the enzymatic activity of activated C1s • (1) 60 μL of the C1s recombinant antibody-coupled magnetic beads were stirred evenly, subjected to magnetic suction to remove a supernatant, added with 200 μL of PBS to mix well, subjected to the magnetic suction to remove a supernatant, and washed repeatedly 2 times. • (2) 10 μL of a sample to be tested or activated C1s standards with different concentrations were diluted to 100 μL with PBS, and mixed vertically with the C1s recombinant antibody-coupled magnetic beads at a room temperature for 10 min. The magnetic suction was performed to discard a supernatant. According to the enzymatic activity of the C1s standard determined in Example 4, the enzymatic activity conversion of the C1s standards with different concentrations is shown in Table 2.
• (3) The magnetic beads were repeatedly washed 3 times with 100 μL of PBS. • (4) The magnetic beads were resuspended with 90 μL of Tris buffer. • (5) 10 μL of substrate peptide 3 was added at a concentration of 1 μg/mL. • (6) The detection was performed with a microplate reader at 360/40 excitation light wave and 460/40 emission light wave, with a best reaction time of 1 h as a detection point, and the fluorescence signals were measured and recorded. The straight line fitting was performed by taking a C1s enzymatic activity as an abscissa and a fluorescence signal as an ordinate with a double logarithmic Log-Log mathematical model and using a least square method to plot a standard curve.
In this example, the specificity of the activated C1s was tested. The interfering antigenic substances (complement analogues) that might exist in serum were detected, such as double-stranded C1r, MASP1, and MASP2. The double-stranded C1r, MASP1, and MASP2 were separately diluted with PBS, and the diluted concentrations were 0.66 mg/mL, 5 mg/mL, and 5 mg/mL, successively. The complement analogues were detected based on the steps of Example 5. A cross reaction rate of various substances was calculated. Cross reaction rate=measured value/theoretical value×100%. […] The cross reaction rates were all less than 0.5%.

B1: MASP2: interfering antigenic substance (complement analogue), from Abnova (protein)
chain: TPLGPKWPEPVFGRLASPGFPGEYANDQERRWTLTAPPGYRLRLYFTHFDLELSHLCEYDFVKLSSGAKVLATLCGQESTDTERAPGKDTFYSLGSSLDITFRSDYSNEKPFTGFEAFYAAEDIDECQVAPGEAPTCDHHCHNHLGGFYCSCRAGYVLHRNKRTCSALCSGQVFTQRSGELSSPEYPRPYPKLSSCTYSISLEEGFSVILDFVESFDVETHPETLCPYDFLKIQTDREEHGPFCGKTLPHRIETKSNTVTITFVTDESGDHTGWKIHYTSTAQPCPYPMAPPNGHVSPVQAKYILKDSFSIFCETGYELLQGHLPLKSFTAVCQKDGSWDRPMPACSIVDCGPPDDLPSGRVEYITGPGVTTYKAVIQYSCEETFYTMKVNDGKYVCEADGFWTSSKGEKSLPVCEPVCGLSARTTGGRIYGGQKAKPGDFPWQVLILGGTTAAGALLYDNWVLTAAHAVYEQKHDASALDIRMGTLKRLSPHYTQAWSEAVFIHEGYTHDAGFDNDIALIKLNNKVVINSNITPICLPRKEAESFMRTDDIGTASGWGLTQRGFLARNLMYVDIPIVDHQKCTAAYEKPPYPRGSVTANMLCAGLESGGKDSCRGDSGGALVFLDSETERWFVGGIVSWGSMNCGEAGQYGVYTKVINYIPWIENIISDF
Turning to B1, the Measured concentration came to 1.64 pmol/min/µg and the “Cross reaction rate (%)” value was found to be 0.04%. In addition, the Measured concentration (C1s equivalent in brackets) was determined as 1.8 µg/mL.

B2: Double-stranded C1r: interfering antigenic substance (complement analogue) that might exist in serum (protein)
chain: SIPIPQKLFGEVTSPLFPKPYPNNFETTTVITVPTGYRVKLVFQQFDLEPSEGCFYDYVKISADKKSLGRFCGQLGSPLGNPPGKKEFMSQGNKMLLTFHTDFSNEENGTIMFYKGFLAYYQAVDLDECASRSKSGEEDPQPQCQHLCHNYVGGYFCSCRPGYELQEDTHSCQAECSSELYTEASGYISSLEYPRSYPPDLRCNYSIRVERGLTLHLKFLEPFDIDDHQQVHCPYDQLQIYANGKNIGEFCGKQRPPDLDTSSNAVDLLFFTDESGDSRGWKLRYTTEIIKCPQPKTLDEFTIIQNLQPQYQFRDYFIATCKQGYQLIEGNQVLHSFTAVCQDDGTWHRAMPRCKIKDCGQPRNLPNGDFRYTTTMGVNTYKARIQYYCHEPYYKMQTRAGSRESEQGVYTCTAQGIWKNEQKGEKIPRCLPVCGKPVNPVEQRQRIIGGQKAKMGNFPWQVFTNIHGRGGGALLGDRWILTAAHTLYPKEHEAQSNASLDVFLGHTNVEELMKLGNHPIRRVSVHPDYRQDESYNFEGDIALLELENSVTLGPNLLPICLPDNDTFYDLGLMGYVSGFGVMEEKIAHDLRFVRLPVANPQACENWLRGKNRMDVFSQNMFCAGHPSLKQDACQGDSGGVFAVRDPNTDRWVATGIVSWGIGCSRGYGFYTKVLNYVDWIKKEMEEED
With B2, the Measured concentration is 0.91 pmol/min/µg and the “Cross reaction rate (%)” value is listed as 0.15%. For the same molecule, the Measured concentration (C1s equivalent in brackets) was determined as 1 µg/mL. The “Cross reaction rate (%)” value (listed as double-stranded C1r) was 0.3%.

B3: MASP1: interfering antigenic substance (complement analogue), from Abnova (protein)
chain: HTVELNNMFGQIQSPGYPDSYPSDSEVTWNITVPDGFRIKLYFMHFNLESSYLCEYDYVKVETEDQVLATFCGRETTDTEQTPGQEVVLSPGSFMSITFRSDFSNEERFTGFDAHYMAVDVDECKEREDEELSCDHYCHNYIGGYYCSCRFGYILHTDNRTCRVECSDNLFTQRTGVITSPDFPNPYPKSSECLYTIELEEGFMVNLQFEDIFDIEDHPEVPCPYDYIKIKVGPKVLGPFCGEKAPEPISTQSHSVLILFHSDNSGENRGWRLSYRAAGNECPELQPPVHGKIEPSQAKYFFKDQVLVSCDTGYKVLKDNVEMDTFQIECLKDGTWSNKIPTCKIVDCRAPGELEHGLITFSTRNNLTTYKSEIKYSCQEPYYKMLNNNTGIYTCSAQGVWMNKVLGRSLPTCLPVCGLPKFSRKLMARIFNGRPAQKGTTPWIAMLSHLNGQPFCGGSLLGSSWIVTAAHCLHQSLDPEDPTLRDSDLLSPSDFKIILGKHWRLRSDENEQHLGVKHTTLHPQYDPNTFENDVALVELLESPVLNAFVMPICLPEGPQQEGAMVIVSGWGKQFLQRFPETLMEIEIPIVDHSTCQKAYAPLKKKVTRDMICAGEKEGGKDACAGDSGGPMVTLNRERGQWYLVGTVSWGDDCGKKDRYGVYSYIHHNKDWIQRVTGVRN
With B3, the Measured concentration is 1.82 pmol/min/µg and the “Cross reaction rate (%)” value was 0.04%. Under “C1s equivalent in brackets”, the Measured concentration came to 2 µg/mL.

Source of the values: patent US20250012721A1, “FLUORESCENCE DETECTION KIT FOR ACTIVATED COMPLEMENT C1s, DETECTION METHOD USING SAME, AND USE THEREOF” (JIANGSU UNIVERSITY, priority 2022, published 2025).
